# Source: patent publication US20090036380A1, “Composition And Method For Brain Tumor Therapy” (Yeda Research and Development Co., Ltd., priority 2006, published 2009)
# Legend:
# TrkB = target: T1, TrkB (Homo sapiens, UniProt Q16620); assay: Co-immunoprecipitation of Ha Karet with TrkB in Hek cells; type: binding; conditions: co-transfected Hek cells
# T1 construct: expressed in transfected cells; host or cells: Hek cells
# Protocol: FIGS. 24a-d depict co IP of Ha Karet with TrkA, TrkB, TrkC, p75 from co-transfected Hek cells. Cells were co-transfected with Ha Karet or control vector and TrkA, TrkB, TrkC or p75. Cells were lysed with NP40, the HA-beads (beads conjugated to anti-HA antibody) were blocked with Hek lysate, and elution was done for 30 minutes at 37° C. Proteins from anti-HA-IP (FIGS. 24a and b) or from cell lysates without IP (FIGS. 24c and d) were subjected to Western blot analysis and the membranes were probed with anti pan trk (FIGS. 24a and c) or anti-p75 (FIGS. 24b and d) antibodies. Note the specific co-IP of Karet with TrkA (FIG. 24a, lane 1), Karet with TrkB (FIG. 24a, lane 3), Karet with TrkC (FIG. 24a, lane 5) and the lack of IP between karet and p75 (FIG. 24b, lane 7).
# COS cells = assay: Viability of COS cells expressing Karet; type: cell-based
# EGFR = target: T2, EGFR (Homo sapiens, UniProt P00533); assay: Co-immunoprecipitation of HA-Karet with EGFR in HEK cells; type: binding; conditions: co-transfected HEK cells
# T2 construct: expressed in transfected cells; host or cells: HEK cells
# Protocol: FIG. 3g is a co-immunoprecipitation assay depicting co-immunoprecipitation of HA-Karet with EGFR in co-transfected HEK cells. Cells were co-transfected with Ha Karet or control vector and EGFR. Cells were lysed with NP40, the HA-beads (i.e., beads conjugated to HA antibody) were blocked with Hek lysate, and elution was done for 30 minutes at 37° C. The membranes were probed with anti FLAG antibody. Note the co-immunoprecipitation of Karet with EGFR in HEK cells.
# necdin = target: T3, necdin (Homo sapiens, UniProt Q99608); assay: Co-immunoprecipitation of Karet with necdin; type: binding; conditions: necdin-PC12 cells, during 50 ng/ml NGF treatment
# T3 construct: expressed in transfected cells
# T3 sequence (Q99608 1-321): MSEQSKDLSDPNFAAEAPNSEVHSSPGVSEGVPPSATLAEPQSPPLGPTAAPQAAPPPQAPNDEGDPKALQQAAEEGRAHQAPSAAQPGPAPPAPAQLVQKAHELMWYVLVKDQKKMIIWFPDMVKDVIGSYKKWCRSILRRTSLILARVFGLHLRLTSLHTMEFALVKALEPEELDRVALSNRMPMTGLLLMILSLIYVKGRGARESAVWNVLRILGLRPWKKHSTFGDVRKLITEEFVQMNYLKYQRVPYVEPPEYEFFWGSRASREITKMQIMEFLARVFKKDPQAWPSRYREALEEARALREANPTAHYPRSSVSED
# Protocol: Karet tagged with the HA epitope was immunoprecipitated with anti-HA antibody, the precipitated proteins were separated electrophoretically, and gel blots were incubated with anti-necdin. In control experiments the HA-Karet was substituted with vector.
# FIGS. 4a-c are co-immunoprecipitation assay results depicting the influence of NGF treatment on TrkA-Karet interaction. FIG. 4a depicts that TrkA-Karet interaction occurred prior to NGF treatment and was enhanced after ligand stimulation for 10 minutes (10 m) or 2 hours (2 h). HA-Karet was electroporated into cell line PC12, and the cells were treated with 50 ng/ml NGF for the indicated time periods in order to activate p75 and TrkA. Karet tagged with the HA epitope was immunoprecipitated with anti-HA antibody, the precipitated proteins were separated electrophoretically, and gel blots were incubated with anti-TrkA antibody (RTA). FIG. 4b depicts that necdin seems to compete with TrkA for binding to Karet. myc-Karet was electroporated into necdin stable cell line, and the cells were treated with 50 ng/ml NGF for the indicated time periods. Karet tagged with the myc epitope was immunoprecipitated with anti-myc antibody, the precipitated proteins were separated electrophoretically, and gel blots were incubated with anti-TrkA antibody (RTA). […] A blot from the same experiment was stripped and re-incubated with anti-necdin antibody. […]
# NNR5 cells = assay: Viability of NNR5 cells transfected with Karet constructs with or without TrkA; type: cell-based, rat
# Protocol: FIG. 5f is a viable cell count histogram depicting that the pro-apoptotic effect of Karet is TrkA dependent. NNR5 cells were electroporated with GFP with or without TrkA construct, or Karet with or without TrkA. Cells were incubated for 12 hours after electroporation and results are presented as percent of control (NNR5 transfected with GFP only, mean±SD, n=4, * p<0.05).
# FIGS. 20a-q are immunochemistry (FIGS. 20a-p) and FACS (FIG. 20q) analyses of myristylated constructs of Karet, PTB and the non-PTB domain in PC12 (FIGS. 20a-p) or NNR5 (FIG. 20q) cells. Myristylated constructs of Karet (FIGS. 20e-h), PTB (FIGS. 20i-l) and the non-PTB domain (FIGS. 20m-p) or non-myristylated construct of Karet (FIGS. 20a-d) were transfected to PC12 cells and immunochemistry of the expressed constructs was performed using HA-antibody (FIG. 20a), the PTB-antibody (FIGS. 20e, i and m) or Lamin (a nuclear membrane protein)-antibody (FIGS. 20b, f, j, and n). Merged images of the two-color immunocytochemistry are shown in FIG. 20d (for anti-Ha and anti-lamin antibodies) or FIGS. 20h l, and p (for anti-PTB and anti-lamin antibodies). Note the cytoplasmic expression of non-myristylated Karet (FIG. 20a) as compared to the nuclear membrane expression of lamin (FIG. 20b). […] NNR5 cells were transfected with pcDNA3, Ha Karet and TrkA, Myr-Karet, Myr-PTB or Myr-non PTB constructs and the effect on cell viability was determined using calcein (the dead/Live kit). […]
# FIGS. 22a-b are histograms depicting the effect of co-transfection of Karet and TrkA on cell death in Hek (FIG. 22a) or NNR5 (FIG. 22b) cells. […] Viability of the cells was measured 24 hours after transfection by XTT. *p<0.05; FIG. 22b—NNR5 cells were co-transfected with Karet or control vector and TrkA, TrkB and TrkC. Cells were analyzed by FACS 24 hours after transfection using the dead/live kit. ** p<0.001.
# Viability of cells was evaluated using the Live/dead viability/cytotoxicity kit (Cat. No. L-3224), Molecular Probes, Inc., Eugene, Oreg., USA, according to manufacturer's instructions.
substance,measurement,setting,value
"Karet: full-length mouse Karet protein (SEQ ID NO:1), PTB domain protein, expressed from pcDNA3 with HA tag",co-immunoprecipitation with TrkB,TrkB,co-immunoprecipitated
same,cell viability,COS cells,no reduction in cell viability
same,co-immunoprecipitation with EGFR,EGFR,co-immunoprecipitation
same,interaction with necdin,necdin,robust and constant
same,cell viability,"NNR5 cells; NNR5 (TrkA deficient), Karet without TrkA",no reduction in cell viability
same,reduction in cell survival,"NNR5 cells; NNR5 co-transfected with Karet and TrkA, 12 hours after electroporation, percent of control",about 20%
same,decrease in viability,"NNR5 cells; NNR5 co-transfected with Karet and TrkA, FACS dead/live kit, 24 hours after transfection",13%
